In assay [1] the target is HLA-A*1101 (human). Put plainly: competition with 125I-labelled probe peptide for purified HLA-A*1101, gel filtration; standard peptide 940.06 [..] (6.0 nM). A general note: Size exclusion chromatography separates by hydrodynamic size, large species first.
Assay [2] deals with T1, HLA-A*0301 (human).
T1 construct: also called HLA-A3
Put plainly: inhibition of 125I-labelled probe peptide binding to purified HLA-A*0301, gel filtration; ratio to standard peptide 941.12 ([..], 11 nM).

The target of assay [3] is HLA-B*5401 (human). Put plainly: competition vs 125I-labeled standard peptide, purified HLA.
Assay [4] concerns the target HLA-B*0702 (human). Described as above.
The target of assay [5] is HLA-B*5101 (human). Described as above.
Assay [6] has as its target HLA-B*5301 (human). The description is as above.
Assay [7] concerns the target HLA-B*3501 (human). The assay is described as above.
Assay [8] has as its target HLA-A*1101 (human). Description: competition with 125I-labelled probe peptide on purified HLA-A*1101, relative to standard peptide 940.06.

As for LIQRNPQLCY [HER2/neu peptide, position 154, 10 amino acids], the relative binding ratio in assay [1] is 0.0002 ratio (IC50 of standard peptide / IC50 of test peptide).
Regarding GLPREYVNAR [HER2/neu peptide, position 549, 10 amino acids], the “relative binding ratio (IC50 of standard peptide / IC50 of test peptide)” value in assay [2] is 0.0002.

B1: Her2/neu.779.F1, 8-mer (peptide)
peptide: FPYVSRLL
notes: 8-mer analog of the HER2/neu peptide starting at position 779; same label as the 10-mer in r56
For orientation: IC50 means the concentration at which inhibition is half-maximal. The low end stands for greater potency in that assay, the high end for weaker potency in that assay. With B1, the IC50 was 172 nM in assay [3]; 61 nM in assay [4]; 6.9 nM in assay [5]; 581 nM in assay [6]; 600 nM in assay [7].
In the case of FSPAFDNLY [HER2/neu peptide, position 1213, 9 amino acids], the “relative binding ratio (IC50 of standard peptide / IC50 of test peptide)” value in assay [2] came out at 0.0002.
On to ILWKDIFHK (also called Her2/neu.167) [HER2/neu peptide, position 167, 9 amino acids], for which, in assay [1], the relative binding ratio was 0.31 ratio (IC50 of standard peptide / IC50 of test peptide).
As to HADGGKVPIK [HER2/neu peptide, position 878, 10 amino acids], in assay [2], the “relative binding ratio (IC50 of standard peptide / IC50 of test peptide)” value turned out to be 0.0003.
On to GGAVENPEY [HER2/neu peptide, position 1188, 9 amino acids], for which the “relative binding ratio (IC50 of standard peptide / IC50 of test peptide)” value in assay [2] was determined as 0.0003.
With HLDMLRHLY (also called Her2/neu.42) [HER2/neu peptide, position 42, 9 amino acids], the relative binding ratio in assay [1] is 0.0002 ratio (IC50 of standard peptide / IC50 of test peptide).
For the molecule RGTQLFEDNY (Synthetic peptide) [HER2/neu peptide, position 103, 10 amino acids], the relative binding ratio in assay [8] was 0.0015 ratio (IC50 of standard peptide / IC50 of test peptide).
As to ILIKRRQQK [HER2/neu peptide, position 673, 9 amino acids], the relative binding ratio in assay [1] is 0.0097 ratio (IC50 of standard peptide / IC50 of test peptide).
For the molecule GMEHLREVR [HER2/neu peptide, position 346, 9 amino acids], in assay [2], the “relative binding ratio (IC50 of standard peptide / IC50 of test peptide)” value was -0.0002.

B2: Her2/neu.698.F1 (peptide)
peptide: FPLTPSGAM
notes: 9-mer analog of the HER2/neu peptide starting at position 698
Consider B2, for which the IC50 amounted to 91 nM in assay [3]; 2 nM in assay [4]; 71 nM in assay [5]; 1520 nM in assay [6]; 16 nM in assay [7].
Turning to GAMPNQAQMR [HER2/neu peptide, position 704, 10 amino acids], the “relative binding ratio (IC50 of standard peptide / IC50 of test peptide)” value in assay [2] is -0.0002.
Regarding GMSYLEDVR [HER2/neu peptide, position 832, 9 amino acids], the “relative binding ratio (IC50 of standard peptide / IC50 of test peptide)” value in assay [2] was -0.0002.
Turning to FSRMARDPQR [HER2/neu peptide, position 976, 10 amino acids], in assay [2], the “relative binding ratio (IC50 of standard peptide / IC50 of test peptide)” value was -0.0002.
Take GSGAFGTVYK [HER2/neu peptide, position 727, 10 amino acids]: the “relative binding ratio (IC50 of standard peptide / IC50 of test peptide)” value in assay [2] was 0.066.
LMTFGAKPY [HER2/neu peptide, position 915, 9 amino acids]: in assay [1], the relative binding ratio was 0.0003 ratio (IC50 of standard peptide / IC50 of test peptide).

B3: Her2/neu.779.F1, 10-mer (peptide)
peptide: FPYVSRLLGI
notes: 10-mer analog of the HER2/neu peptide starting at position 779; same label as the 8-mer in r55
Take B3: the IC50 in assay [3] stood at 9.1 nM; in assay [4], 112 nM; in assay [5], 7.9 nM; in assay [6] it was 358 nM; in assay [7], 3600 nM.
In the case of GLGISWLGLR [HER2/neu peptide, position 447, 10 amino acids], in assay [2], the “relative binding ratio (IC50 of standard peptide / IC50 of test peptide)” value is 0.0037.

B4: Her2/neu.921.F1 (peptide)
peptide: FPYDGIPA
notes: 8-mer analog of the HER2/neu peptide starting at position 921
As to B4, the IC50 in assay [3] is 1 nM; in assay [4], 423 nM; in assay [5] it was 157 nM; in assay [6], 6200 nM; in assay [7], 206 nM.

B5: Her2/neu.921.F1I8 (peptide)
peptide: FPYDGIPI
notes: as for B4
For the molecule B5, the IC50 in assay [3] was determined as 56 nM; in assay [4], 177 nM; in assay [5], 10 nM; in assay [6], 344 nM; in assay [7], 379 nM.
As for LCYQDTILWK [HER2/neu peptide, position 161, 10 amino acids], the relative binding ratio in assay [1] was 0.0063 ratio (IC50 of standard peptide / IC50 of test peptide).
As to GVGSPYVSR [HER2/neu peptide, position 776, 9 amino acids], the “relative binding ratio (IC50 of standard peptide / IC50 of test peptide)” value in assay [2] was 0.001.
Consider GLACHQLCAR [HER2/neu peptide, position 508, 10 amino acids], for which the “relative binding ratio (IC50 of standard peptide / IC50 of test peptide)” value in assay [2] was 0.011.

B6: Her2/neu.649.F1, 9-mer (peptide)
peptide: FPLTSIISA
notes: 9-mer analog of the HER2/neu peptide starting at position 649; same label as the 10-mer in r43
Regarding B6, the IC50 in assay [3] is 1.4 nM; in assay [4] it was 290 nM; in assay [5], 663 nM; in assay [6], 3000 nM; in assay [7], 21 nM.
In the case of LSPGKNGVVK [HER2/neu peptide, position 1173, 10 amino acids], the relative binding ratio in assay [1] is 0.0003 ratio (IC50 of standard peptide / IC50 of test peptide).
Regarding GTQRCEKCSK [HER2/neu peptide, position 327, 10 amino acids], in assay [2], the “relative binding ratio (IC50 of standard peptide / IC50 of test peptide)” value was found to be 0.021.
For GASCVTACPY [HER2/neu peptide, position 292, 10 amino acids], the “relative binding ratio (IC50 of standard peptide / IC50 of test peptide)” value in assay [2] was determined as 0.0003.
As to LALTLIDTNR [HER2/neu peptide, position 179, 10 amino acids], in assay [1], the relative binding ratio is 0.0003 ratio (IC50 of standard peptide / IC50 of test peptide).
Same read-out and setting: the result for LACHQLCAR [HER2/neu peptide, position 509, 9 amino acids] reads 0.0003 ratio (IC50 of standard peptide / IC50 of test peptide); that for ILKETELRK [HER2/neu peptide, position 714, 9 amino acids], 0.0023 ratio (IC50 of standard peptide / IC50 of test peptide).
Take KIRKYTMR [HER2/neu peptide, position 681, 8 amino acids]: the relative binding ratio in assay [1] is 0.0004 ratio (IC50 of standard peptide / IC50 of test peptide).
HSCVDLDDK [HER2/neu peptide, position 632, 9 amino acids]: the relative binding ratio in assay [1] is 0.0007 ratio (IC50 of standard peptide / IC50 of test peptide).
Turning to LIKRRQQKIR [HER2/neu peptide, position 674, 10 amino acids], the relative binding ratio in assay [1] is 0.0001 ratio (IC50 of standard peptide / IC50 of test peptide).

B7: Her2/neu.701.F1 (peptide)
peptide: FPSGAMPNQI
notes: the label names only F1 though the C-terminus is I
For the molecule B7, the IC50 was 100 nM in assay [3]; 229 nM in assay [4]; 131 nM in assay [5]; 775 nM in assay [6]; 6550 nM in assay [7].
Take LGSGAFGTVY [HER2/neu peptide, position 726, 10 amino acids]: the relative binding ratio in assay [1] is 0.0003 ratio (IC50 of standard peptide / IC50 of test peptide).
Still for that read-out and setting: under LLNWCMQIAK [HER2/neu peptide, position 822, 10 amino acids] stands 0.14 ratio (IC50 of standard peptide / IC50 of test peptide); under HTVPWDQLFR (also called Her2/neu.478) [HER2/neu peptide, position 478, 10 amino acids], 0.072 ratio (IC50 of standard peptide / IC50 of test peptide).
In the case of GAGGMVHHR [HER2/neu peptide, position 1038, 9 amino acids], in assay [2], the “relative binding ratio (IC50 of standard peptide / IC50 of test peptide)” value turned out to be 0.0002.
Take KVLRENTSPK [HER2/neu peptide, position 753, 10 amino acids]: the relative binding ratio in assay [1] was 0.22 ratio (IC50 of standard peptide / IC50 of test peptide).

B8: Her2/neu.706.I11 (peptide)
peptide: MPNQAQMRILI
notes: 11-mer analog of the HER2/neu peptide starting at position 706
For the molecule B8, the IC50 is 303 nM in assay [3]; 344 nM in assay [4]; 37 nM in assay [5]; 12 nM in assay [6]; 1800 nM in assay [7].
Take GSGAFGTVY [HER2/neu peptide, position 727, 9 amino acids]: in assay [2], the “relative binding ratio (IC50 of standard peptide / IC50 of test peptide)” value came to 0.0028.

B9: Her2/neu.801.I11 (peptide)
peptide: MPYGCLLDHVI
notes: 11-mer analog of the HER2/neu peptide starting at position 801
As to B9, the IC50 came to 7.7 nM in assay [3]; 66 nM in assay [4]; 2.4 nM in assay [5]; 1.9 nM in assay [6]; 4.2 nM in assay [7].
For GVVFGILIK [HER2/neu peptide, position 668, 9 amino acids], the “relative binding ratio (IC50 of standard peptide / IC50 of test peptide)” value in assay [2] is 0.0047.
Consider KIPVAIKVLR [HER2/neu peptide, position 747, 10 amino acids], for which the relative binding ratio in assay [1] was 0.0099 ratio (IC50 of standard peptide / IC50 of test peptide).

B10: Her2/neu.884.F1I8 (peptide)
peptide: FPIKWMAI
notes: 8-mer analog of the HER2/neu peptide starting at position 884
On to B10, for which the IC50 in assay [3] was found to be 33 nM; in assay [4], 22 nM; in assay [5], 122 nM; in assay [6] it was 930 nM; in assay [7] it was 1140 nM.

B11: Her2/neu.884.F1 (peptide)
peptide: FPIKWMAL
notes: 8-mer analog of the HER2/neu peptide starting at position 884; also called FPIKWMAL
As to B11, the IC50 in assay [3] came out at 40 nM; in assay [4] it was 0.6 nM; in assay [5], 306 nM; in assay [6] it was 547 nM; in assay [7], 248 nM.

B12: Her2/neu.706.F1, 10-mer (peptide)
peptide: FPNQAQMRIL
notes: 10-mer analog of the HER2/neu peptide starting at position 706; same label as the 9-mer in r49
On to B12, for which the IC50 in assay [3] was 31 nM; in assay [4], 81 nM; in assay [5], 458 nM; in assay [6] it was 443 nM; in assay [7] it was 200 nM.
On to GILIKRRQQK [HER2/neu peptide, position 672, 10 amino acids], for which, in assay [2], the “relative binding ratio (IC50 of standard peptide / IC50 of test peptide)” value is 0.015.

The values above are taken from patent US20040018971A1 (published 2004).
